Literature values as cited in article PMC4188523.

Tests used:
Glu35 = Glu35 (UniProt position 53, CAAKFESNFNT); test: NMR (according to the title of cited reference 36; not described in this article)
Asp52 = Asp52 (UniProt position 70, TDGSTDYGILQ); test: as above

Q: Which pKa (Glu35) does the source give for “Hen egg white lysozyme (HEWL, lysozyme C) (Gallus gallus)” here?
A: ∼6.2

Q: And the pKa (Asp52)?
A: ∼3.6
